The text below walks through data of patent US20240093246.

This data set concerns cyanobacterial flavodoxin.

As for “wild-type photosystem I purified from strain WT^H6 (PBC4-2[pBSEP5.8])”, the “flavodoxin photoreduction turnover rate” value is 4.4±0.6 Flvd s^-1 (PSI)^-1.

As to “PSI-MeHydA complex (chimeric photosystem I carrying PsaC-MeHydA, from strain ΨH3^H6)”, the “flavodoxin photoreduction turnover rate” value is listed as 0.7±0.1 Flvd s^-1 (PSI)^-1, the “fold decrease of flavodoxin reduction against WT PSI” value is given as “lowers flavodoxin reduction by a factor of 6-8”, the “linear rate of flavodoxin photoreduction relative to JVD-1b^H6 PSI” value was 12.3±2.4% relative to JVD-1b^H6 PSI and the “linear rate of flavodoxin photoreduction relative to WT^H6 PSI” value was “˜15.9±2.4% that of WT^H6”.

For the substance “wild-type photosystem I purified from strain JVD-1B^H6”, the “flavodoxin photoreduction turnover rate” value was 5.7±0.3 Flvd s^-1 (PSI)^-1.
